Publication PMC3506575

Target: human GLP-2 Receptor (human) (UniProt O95838)
Chain of UniProt O95838 (O95838 whole entry): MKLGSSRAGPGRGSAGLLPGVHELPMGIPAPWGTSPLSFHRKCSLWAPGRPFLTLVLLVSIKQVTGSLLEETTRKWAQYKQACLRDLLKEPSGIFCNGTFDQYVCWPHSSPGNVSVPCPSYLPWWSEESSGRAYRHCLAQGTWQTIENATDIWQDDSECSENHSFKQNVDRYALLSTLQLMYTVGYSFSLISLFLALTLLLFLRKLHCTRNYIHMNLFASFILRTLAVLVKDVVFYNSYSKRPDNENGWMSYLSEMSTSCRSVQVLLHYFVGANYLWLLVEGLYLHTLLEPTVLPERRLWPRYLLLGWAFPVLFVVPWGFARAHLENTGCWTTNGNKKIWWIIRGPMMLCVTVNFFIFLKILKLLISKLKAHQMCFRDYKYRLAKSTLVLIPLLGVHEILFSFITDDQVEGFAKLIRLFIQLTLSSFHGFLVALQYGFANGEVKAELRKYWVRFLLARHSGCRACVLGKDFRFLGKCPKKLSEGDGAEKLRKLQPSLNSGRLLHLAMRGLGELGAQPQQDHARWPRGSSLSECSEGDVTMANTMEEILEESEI

B1: GLP2-2G-XTEN fusion protein (protein)
chain: HGDGSFSDEMNTILDNLAARDFINWLIQTKITDGGSPAGSPTSTEEGTSESATPESGPGTSTEPSEGSAPGSPAGSPTSTEEGTSTEPSEGSAPGTSTEPSEGSAPGTSESATPESGPGSEPATSGSETPGSEPATSGSETPGSPAGSPTSTEEGTSESATPESGPGTSTEPSEGSAPGTSTEPSEGSAPGSPAGSPTSTEEGTSTEPSEGSAPGTSTEPSEGSAPGTSESATPESGPGTSTEPSEGSAPGTSESATPESGPGSEPATSGSETPGTSTEPSEGSAPGTSTEPSEGSAPGTSESATPESGPGTSESATPESGPGSPAGSPTSTEEGTSESATPESGPGSEPATSGSETPGTSESATPESGPGTSTEPSEGSAPGTSTEPSEGSAPGTSTEPSEGSAPGTSTEPSEGSAPGTSTEPSEGSAPGTSTEPSEGSAPGSPAGSPTSTEEGTSTEPSEGSAPGTSESATPESGPGSEPATSGSETPGTSESATPESGPGSEPATSGSETPGTSESATPESGPGTSTEPSEGSAPGTSESATPESGPGSPAGSPTSTEEGSPAGSPTSTEEGSPAGSPTSTEEGTSESATPESGPGTSTEPSEGSAPGTSESATPESGPGSEPATSGSETPGTSESATPESGPGSEPATSGSETPGTSESATPESGPGTSTEPSEGSAPGSPAGSPTSTEEGTSESATPESGPGSEPATSGSETPGTSESATPESGPGSPAGSPTSTEEGSPAGSPTSTEEGTSTEPSEGSAPGTSESATPESGPGTSESATPESGPGTSESATPESGPGSEPATSGSETPGSEPATSGSETPGSPAGSPTSTEEGTSTEPSEGSAPGTSTEPSEGSAPGSEPATSGSETPGTSESATPESGPGTSTEPSEGSAPG
Work on B1 yielded a calcium flux (FLIPR) in a human GLP-2 receptor-expressing Chem-11 cell line, serial dilutions, EC50 of activation of 380 nM.
